Laboratory results reported in the supplement of paper PMC10724198.
± gives the standard deviation of the averaged measurements.

System: Saccharomyces cerevisiae
Assay: protein stability index of tFT-peptide fusion (C-terminal peptide) (PSI (0-1 scale)); higher = more stable (slower turnover)
Conditions: genetic background: wild type; temperature: 30 C
Protocol: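 Multiplexed protein stability (MPS) profiling in S. cerevisiae. Random 12-aa peptides (tFT-X12 library) are fused to the C-terminus of a sfGFP-mCherry tandem fluorescent timer, after mCherry and a GGGS linker. Cells are FACS-sorted into 8 mCherry/sfGFP bins and deep-sequenced. The protein stability index (PSI) is the read-weighted bin average, scaled from 0 (unstable) to 1 (stable). Only peptides with >10 reads are reported; cells were grown at 30 °C in SC-His with glucose.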
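Also: PSI is a weighted mean of sequencing reads over stability bins, variants kept only with over 10 reads, mCherry proximal and sfGFP distal, peptide attached via GGGS linker.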

Sequence | protein stability index
KDKSQKKERQKT | 0.664 ± 0.029
LPPLLPPFHPPR | 0.701 ± 0.06
KRLKKKKQSGGK | 0.71 ± 0.03
KKKKKKKSTKRN | 0.713 ± 0.037
PRFPLPLPPPSP | 0.7356 ± 0.0037
SSDFVFGHRFCR | 0.693 ± 0.015
FRSFLSKLNGLF | 0.636 ± 0.03
PLVPPESPRSQV | 0.6564 ± 0.0034
FAHRVVCFCVFS | 0.505 ± 0.038
KKNKKKKIKMNK | 0.713 ± 0.038
VSMSACSPGGMS | 0.646 ± 0.02
LSLALGSPGALP | 0.703 ± 0.07
KKKTKEKTRKKK | 0.702 ± 0.016
VQSVDVLLISSL | 0.642 ± 0.032
GGRRRAWLGGRW | 0.746 ± 0.012
AEPSERSRNSPP | 0.68 ± 0.019
SSVNYPSFPPLA | 0.706 ± 0.03
FLPWPSYPTPGP | 0.784 ± 0.018
VGPRFAYLDVAA | 0.5644 ± 0.0031
CCVKRARVPHFV | 0.6159 ± 0.0014
VVGAGGLCNMDV | 0.635 ± 0.029
PPPAPLSPLSPR | 0.6777 ± 0.0016
VKKVSSVGGREG | 0.643 ± 0.1
VMGYCNWCVIRQ | 0.694 ± 0.054
KKKKKKKKKKKR | 0.633 ± 0.009

Sequence | protein stability index
FGGGLGGGVVLV | 0.69158 ± 0.00021
ARGCRRWRVLRR | 0.77 ± 0.25
PVPKFKEPKIWW | 0.698 ± 0.021
SLTCRKQTVRVI | 0.53 ± 0.012
CASPLHPCPKST | 0.6542 ± 0.0023
LAESTSYNQRRP | 0.701 ± 0.06
PPPSSELTFLHY | 0.797 ± 0.067
ERRKQDERKRRV | 0.7059 ± 0.00075
CSWLVEWVLSFS | 0.5417 ± 0.0041
KSSEIKEKKTKK | 0.7151 ± 0.0011
SPGSSIFLYFFT | 0.729 ± 0.022
SLNQWTGTTLRQ | 0.66 ± 0.02
LMCGPARSPLTT | 0.6701 ± 0.00098
LVGFGGGGHGVV | 0.696 ± 0.019
DTDRRWLGTFLV | 0.534 ± 0.023
KKRYYNKKINEK | 0.699 ± 0.046
VIACTFLSCSFS | 0.531 ± 0.02
HKDVRGRSLSRM | 0.7183 ± 0.0024
VVRGKRRVRWLR | 0.625 ± 0.049
LPAPLHPPPSQP | 0.638 ± 0.014
FSCEVSFAGLIV | 0.6 ± 0.012
SPLRPPSLPAPG | 0.653 ± 0.015
LRAHHHSAKFQY | 0.6608 ± 0.0056
CVAFLPISSFTS | 0.76 ± 0.07
PPSSRPPVRSPP | 0.6903 ± 0.0014

Sequence | protein stability index
KMTSLSRVDIEE | 0.668 ± 0.087
GLSSGLWAFWWP | 0.749 ± 0.049
RILVYRKENRKN | 0.678 ± 0.052
VSGSVVLHTVIP | 0.658 ± 0.017
SPRRWVSGHPRG | 0.711 ± 0.042
WWWGGVRGGMGG | 0.749 ± 0.026
TNFSRCFLFRSW | 0.629 ± 0.025
ENKGKKITITNE | 0.625 ± 0.018
FPPRPLPFCSPA | 0.643 ± 0.0046
PPHAAPPHICWQ | 0.727 ± 0.049
PSLSPAPLPGLP | 0.706 ± 0.042
QSLRRLSSSSCI | 0.707 ± 0.058
TPPPPAPPHPPP | 0.62 ± 0.036
YFSQPLGPSPLL | 0.812 ± 0.074
ALIGMFATVALI | 0.689 ± 0.099
GSRSPEARARFV | 0.68748 ± 0.00064
LFILSLGEYSLP | 0.673 ± 0.066
MGAVGGLCGMWA | 0.711 ± 0.029
GLVFSFSACPVL | 0.653 ± 0.066
PDYPLSCLLFFP | 0.643 ± 0.011
MACCGVFISHKT | 0.615 ± 0.026
WGRGLESVKGGG | 0.727 ± 0.018
LARPPPPSNHSP | 0.695 ± 0.0094
RWTRFISLTGTG | 0.637 ± 0.064
TGVSTRVTHTAP | 0.707 ± 0.014

Sequence | protein stability index
HLLSPPLPPSPA | 0.728 ± 0.039
PPASPPAPPTFG | 0.645 ± 0.021
PRRYPPPSPRTS | 0.704 ± 0.016
PPQLSRHVSTRP | 0.754 ± 0.0084
VRPQHIITSGSC | 0.739 ± 0.15
GRGGGGGLWVRV | 0.651 ± 0.023
PSVSPVRLPYLL | 0.687 ± 0.035
GPVGPGECYDYT | 0.706 ± 0.00044
LLPPLPLSPSAP | 0.685 ± 0.096
MRRSSKPRLSLT | 0.725 ± 0.049
KKKNKKKRKGRK | 0.684 ± 0.037
LPPRPPESLHLP | 0.724 ± 0.03
DRTQKIQNNKWM | 0.622 ± 0.014
VVFLWGVFGGSI | 0.688 ± 0.055
HPPYRHHPAPLR | 0.673 ± 0.058
WKQKRGTHNIKD | 0.722 ± 0.011
SPVLSPHSRSSF | 0.633 ± 0.087
APSCRVPPLPPP | 0.708 ± 0.046
YGIILPIRVSGF | 0.631 ± 0.035
KDQRAKRRRREE | 0.679 ± 0.08
CCVGVGTRLGFA | 0.646 ± 0.082
PLRLPPPRSPPL | 0.689 ± 0.032
KKKKNNKKKQRT | 0.731 ± 0.027
SQGLALFLRPGY | 0.628 ± 0.057
SSSPTFLLSPFP | 0.721 ± 0.012

Sequence | protein stability index
GLGLVSWEAGGV | 0.68 ± 0.025
PPEPRPLPDAPP | 0.5977 ± 0.0052
YALWRFRSLADV | 0.695 ± 0.1
TSRLPPSPPPPP | 0.696 ± 0.14
RGEVQPRRDPGA | 0.662 ± 0.0095
FVCLRWAVGLGG | 0.6204 ± 0.0013
KMYILKGKIRKI | 0.612 ± 0.057
CSKLYGAFANTF | 0.644 ± 0.1
NRRPLVQNGKLF | 0.67849 ± 0.00026
GLYVDRTVEVGG | 0.6228 ± 0.0035
SMLLFFLPSSSS | 0.641 ± 0.046
PQGGREYIYSPQ | 0.718 ± 0.019
IPSCSTPAPHLP | 0.677 ± 0.022
RTRLPYVPAPAP | 0.686 ± 0.0092
TPSPHPRYRASH | 0.703 ± 0.026
GGWKINYVEENR | 0.663 ± 0.011
PTPMLPNYPWSR | 0.7431 ± 0.0015
SRLGLLTDGVYA | 0.583 ± 0.025
PFLHPTRLARSN | 0.712 ± 0.011
GAKCLFVSGGGI | 0.6804 ± 0.0047
LGACAGSGFKGV | 0.713 ± 0.033
HHAKWAHGTPAQ | 0.681 ± 0.022
SVSLPPSLPFLL | 0.764 ± 0.03
RGTWSLFYAFLD | 0.578 ± 0.035
TLDNEKKKKRNT | 0.674 ± 0.022

Sequence | protein stability index
TNRIRGTARKVK | 0.67 ± 0.055
MTESLIGCLSGD | 0.7 ± 0.0074
PYAHTKGSLGML | 0.6352 ± 0.0013
SSFPAGGWLFFL | 0.682 ± 0.029
WEWFKWRDHNRY | 0.803 ± 0.037
VPSANAQTPSTC | 0.717 ± 0.071
PLGCGLTRCVAT | 0.599 ± 0.0067
SWRRAASSGGGE | 0.618 ± 0.074
STCPPIFFVSSW | 0.7248 ± 0.0063
KAIVKKCTDSED | 0.679 ± 0.011
PPSSPALPSDTP | 0.694 ± 0.013
LPLPLPWHSCPP | 0.721 ± 0.029
RITYIANNVMLF | 0.652 ± 0.028
VGGVWVDVMGFC | 0.793 ± 0.16
PALPPPGSPPPS | 0.616 ± 0.01
RLARAPTQPRLS | 0.67 ± 0.062
LCLGFDGAFPLF | 0.725 ± 0.014
RDCVVSCSCIHI | 0.694 ± 0.057
EILGFVFGFFFL | 0.5711 ± 0.0016
PLPLPYCQASPV | 0.658 ± 0.008
GVGYCCVSGGLG | 0.722 ± 0.011
KTKRKKKRRRRE | 0.705 ± 0.067
PQPPLYPPPSLP | 0.675 ± 0.036
PHARHPPDHRPF | 0.678 ± 0.059
YMLSMIYEIEMM | 0.578 ± 0.04

Sequence | protein stability index
IERRCGRCMCFM | 0.783 ± 0.1
PLSAPNHVPGRT | 0.702 ± 0.045
SGGVWWGRGRVS | 0.727 ± 0.058
SLPAPPPPPPPH | 0.727 ± 0.034
PISGFLRPPPPF | 0.663 ± 0.012
YPTQSPSPAPPT | 0.644 ± 0.099
AHWFMPVSCLLV | 0.838 ± 0.2
QKTVRDIRIAAL | 0.591 ± 0.086
FCFHPLTGKLSG | 0.6536 ± 0.0029
TRPSPHRPSAST | 0.678 ± 0.054
KRGKRTEKDKET | 0.652 ± 0.071
CCISCSVCKDGS | 0.6183 ± 0.00094
DGAVRRGVGGLG | 0.699 ± 0.031
KRCTFCGGGWVM | 0.7276 ± 0.00082
MVVGWGGVEPVG | 0.758 ± 0.048
ESSPQPIPSRLA | 0.707 ± 0.016
IAFSINAFCWRG | 0.552 ± 0.055
QGSRRPRSVVWG | 0.708 ± 0.038
ACFFNCFISLPF | 0.584 ± 0.048
NIGVKNVVLVEG | 0.537 ± 0.043
WSKEQRRGGCGQ | 0.714 ± 0.015
PLPAAPPILFSL | 0.731 ± 0.038
PPLPSLLGLLFP | 0.6773 ± 0.0044
RLASGGSAFINL | 0.78 ± 0.2
TRALPIVLAVGP | 0.59 ± 0.026

Sequence | protein stability index
PRSLSLLPPSSP | 0.734 ± 0.037
RPHAFHCDPSSP | 0.698 ± 0.11
HLSPPPLMPPCC | 0.759 ± 0.067
FCSLLLFRFVVL | 0.517 ± 0.015
VGRGWSSGGGGD | 0.682 ± 0.023
GAGRLGGDRVVG | 0.698 ± 0.037
SDLKARYHCGRD | 0.652 ± 0.075
RKCMSNSKNNNE | 0.669 ± 0.018
RTLYEAAPLFVG | 0.729 ± 0.051
LVFTDDGGVRSL | 0.609 ± 0.03
FPRPHPTPLPPG | 0.689 ± 0.013
DPVGRSSHQFFL | 0.633 ± 0.026
SLPSRPLSFYSP | 0.715 ± 0.068
VLLMRSARTAGA | 0.69 ± 0.021
RHAFGSSHVRFF | 0.679 ± 0.024
IRPRRFSPGSTR | 0.7 ± 0.043
ASIRLSPSWVQR | 0.652 ± 0.0081
SAPPSPPLPPPC | 0.677 ± 0.067
KLNDTLKDRQNK | 0.67 ± 0.037
IGNFTTEVDGWG | 0.662 ± 0.036
PPPTPPRPPSPP | 0.656 ± 0.015
